Test results as given in patent US6653088 (AVENTIS PHARMA S A, dated 2003).

B1: S-tag-PS2Nt (recombinant PS2NT protein produced in bacterium) (other, not shown: small tags and cut ends)
chain: MLTFMASDSEEEVCDERTSLMSAESPTPRSCQEGRQGPEDGENTAQWRSQENEEDGEEDPDRYVCSGVPGRPPGLEEELTLKYGAKH
notes: also called unlabelled PS2NT
B2: cytoplasmic domain of the APP (MC45F) (other, not shown: small tags and cut ends)
chain: KKQYTSIHHGVVEVDAAVTPEERHLSKMQQNGYENPTYKFFEQMQNDYDDDDK
notes: also called cytoplasmic domain of APP; the 45 last residues of the APP
B3: amyline (peptide, UniProt P10997 34-70, looked up)
peptide: KCNTATCATQRLANFLVHSSNNFGAILSSTNVGSNTY
notes: also called another amyloidogenous peptide

Columns and labels:
[1] = target: T1, biot-3K-Aβ42RR (UniProt P05067 672-713, biotin at the N-terminal end); experiment: HTRF competition; unlabelled PS2NT displaces PS2NT-K from biot-Aβ42
T1 construct: domain: Aβ1-42; also called biot-Aβ42; biot-Aβ1-42

[2] = target: T2, presenilin 2 (PS2) (human, UniProt P49810 1-448); experiment: co-immunoprecipitation from cotransfected COS cells, detection with αCT43
T2 construct: whole, on cells; Full-length membrane protein; complexes formed in transfected COS cells and were analysed in detergent lysates; also called complete PS2; STM2
Procedure: For immunoprecipitation, 100 μg of proteins are diluted in 400 μl of modified RIPA (150 mM NaCl, 50 mM Tris pH 8.0, 1% TRITON X100 v/v, 1% NP40 v/v). Thirty microlitres of protein A Sepharose suspension (0.1% m/v in PBS solution) and 3 μl of antibody are added. The suspensions are gently mixed on a rotating shaker at 4° C. for one night. The protein A Sepharose complex is washed 3 times with 0.5 ml of modified RIPA and once with 0.5 ml of "Wash C" washing buffer (10 mM Tris pH 7.5).

[3] = target: B1; experiment: 96-well plate test (ELISA type), peptide on plastic, S-tag detection
Procedure: The plates are rinsed twice with PBS and the non-specific immobilization sites are saturated by incubation with 5% (w/v) of bovine serum albumin in PBS. […] The detection of the signal is carried out in a spectrophotometer at 450 nm.
The Aβ peptide (Aβ40 or Aβ42) is immobilized by incubation on plastic 96-well plates.

Binder: B1
- IC50 [1]: 400 nM

Binder: B2
- binding result [2]: no binding

Binder: B3
- binding result [3]: no binding
